Publication PMC5526109

Target: MAdCAM-1 (mucosal addressin cell adhesion molecule-1) (UniProt Q13477)
Assay: cell adhesion assay

Chain of UniProt Q13477 (Q13477 19-382): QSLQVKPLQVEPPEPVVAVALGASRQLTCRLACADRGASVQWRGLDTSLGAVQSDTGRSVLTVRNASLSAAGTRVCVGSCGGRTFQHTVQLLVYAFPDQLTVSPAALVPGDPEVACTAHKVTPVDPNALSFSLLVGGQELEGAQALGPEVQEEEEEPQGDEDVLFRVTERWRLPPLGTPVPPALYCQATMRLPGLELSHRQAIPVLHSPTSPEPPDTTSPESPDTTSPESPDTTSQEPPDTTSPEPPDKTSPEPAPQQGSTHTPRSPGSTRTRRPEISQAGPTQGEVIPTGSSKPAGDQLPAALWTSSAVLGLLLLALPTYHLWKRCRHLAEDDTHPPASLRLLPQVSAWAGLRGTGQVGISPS

Q: With “α4β7 integrin (from UniProt P13612 34-1032; P26010 20-798) (receptor)” as the substance, how does the relative light units of bound cells (~7.5 pmol MAdCAM-1 coated) read?
A: 1e+06 RLU
